B1: RCP-7: recombinant polypeptide SEQ ID NO: 20; human vitronectin positions 1-55, 270-373, C274S (protein)
chain: MDQESCKGRCTEGFNVDKKCQCDELCSYYQSCCTDYTAECKPQVTRGDVFTMPEDESQEESEGSSLSAVFEHFAMMQRDSWEDIFELLFWGRTSAGTRQPQFISRDWHGVPGQVDAAMAGRIYISGMAPRPSLAKKQRFRHRNRKGYRSQRGHSRGRNQN
modifications: Synthetic peptide RCP-7
notes: human vitronectin positions 1-55, 270-373, C274S
B2: Natural vitronectin: human vitronectin extracted from human blood plasma, BD Biosciences (protein, UniProt P04004 20-478, looked up)
Vitronectin: DQESCKGRCTEGFNVDKKCQCDELCSYYQSCCTDYTAECKPQVTRGDVFTMPEDEYTVYDDGEEKNNATVHEQVGGPSLTSDLQAQSKGNPEQTPVLKPEEEAPAPEVGASKPEGIDSRPETLHPGRPQPPAEEELCSGKPFDAFTDLKNGSLFAFRGQYCYELDEKAVRPGYPKLIRDVWGIEGPIDAAFTRINCQGKTYLFKGSQYWRFEDGVLDPDYPRNISDGFDGIPDNVDAALALPAHSYSGRERVYFFKGKQYWEYQFQHQPSQEECEGSSLSAVFEHFAMMQRDSWEDIFELLFWGRTSAGTRQPQFISRDWHGVPGQVDAAMAGRIYISGMAPRPSLAKKQRFRHRNRKGYRSQRGHSRGRNQNSRRPSRATWLSLFSSEESNLGANNYDDYRMDWLVPATCEPIQSVFFFSGDKYYRVNLRTRRVDTVDPPYPRSIAQYWLGCPAPGHL
B3: RCP-8: recombinant polypeptide SEQ ID NO: 21; human vitronectin positions 1-55, 270-373, 374-379, C274S (protein)
chain: MDQESCKGRCTEGFNVDKKCQCDELCSYYQSCCTDYTAECKPQVTRGDVFTMPEDESQEESEGSSLSAVFEHFAMMQRDSWEDIFELLFWGRTSAGTRQPQFISRDWHGVPGQVDAAMAGRIYISGMAPRPSLAKKQRFRHRNRKGYRSQRGHSRGRNQNSRRPSR
modifications: Synthetic peptide RCP-8
notes: human vitronectin positions 1-55, 270-373, 374-379, C274S
B4: RCP-17: recombinant polypeptide SEQ ID NO: 39; human vitronectin positions 1-55, 270-277, 295-341, 342-373, C274S (protein)
chain: MDQESCKGRCTEGFNVDKKCQCDELCSYYQSCCTDYTAECKPQVTRGDVFTMPEDESQEESEGSEDIFELLFWGRTSAGTRQPQFISRDWHGVPGQVDAAMAGRIYISGMAPRPSLAKKQRFRHRNRKGYRSQRGHSRGRNQN
modifications: Synthetic peptide RCP-17
notes: human vitronectin positions 1-55, 270-277, 295-341, 342-373, C274S
B5: RCP-6: recombinant polypeptide SEQ ID NO: 19; human vitronectin positions 1-55, 270-459, C274S, C411S, C453S (protein)
chain: MDQESCKGRCTEGFNVDKKCQCDELCSYYQSCCTDYTAECKPQVTRGDVFTMPEDESQEESEGSSLSAVFEHFAMMQRDSWEDIFELLFWGRTSAGTRQPQFISRDWHGVPGQVDAAMAGRIYISGMAPRPSLAKKQRFRHRNRKGYRSQRGHSRGRNQNSRRPSRATWLSLFSSEESNLGANNYDDYRMDWLVPATSEPIQSVFFFSGDKYYRVNLRTRRVDTVDPPYPRSIAQYWLGSPAPGHL
modifications: Synthetic peptide RCP-6
notes: human vitronectin positions 1-55, 270-459, C274S, C411S, C453S

How the values were obtained:
[1] = Aggregation after dialysis (removal of urea); assay type: physicochemical; conditions: after stepwise dialysis against PBS, 1.5 M NaCl, 0.5 M L-arginine, 1 mM EDTA, pH 7.4
Experimental: For RCP-1 to RCP-10 and RCP-17, each of the purified polypeptide solutions was dialyzed using SLIDE-A-LIZER (trade name, 3.5 K MWCO.). Basically, by using a dialysis buffer (PBS, 1.5 M NaCl, 0.5 M L-arginine, 1 mM EDTA, pH 7.4) as an outer dialysate, urea was removed by stepwise dialysis. The concentration of the end-product of dialysis was calculated from the absorbence at 280 nm by using NANODROP (trade name, Thermo Fisher Scientific Inc.).
Furthermore, the indices of hydrophobicity determined for each of the amino acids were summed up, the obtained value was divided by the number of the amino acids, and the outcome was determined as the GRAVY value (see Kyte J., Doolittle R. F. (1982), J. Mol. Biol, 157: 105-132). The GRAVY value is an index of the hydrophilicity and hydrophobicity of a polypeptide calculated from the degree of hydrophobicity of the amino acids contained in each polypeptide. The greater the GRAVY value, the more the polypeptide is hydrophobic, and the smaller the GRAVY value, the more the polypeptide is hydrophilic. The results are shown in Table 4. • Whether or not aggregation was occurred was evaluated based on the scale of G, A, and B as shown below. The results are summarized in Table 4. • G: The formation of an aggregate was not observed. • A: The formation of particles having a particle size of about 100 nm was observed. • B: The formation of an aggregation of particles having a particle size of equal to or greater than 1 mm was visually observed.

iPS cells = assay: Evaluation of maintenance of undifferentiated state (colony form, NANOG staining); assay type: cell-based, human; conditions: FIGS. 4A to 4E; after culture for 1 month
Experimental: iPS cells collected in the same manner as in <Cell adhesiveness evaluation 1> were suspended in TeSR2. The iPS cells were seeded into 6-well plate (Tissue culture-treated, Falcon), onto which each of the samples 1, 2, 5, 6, and 7 used in <Cell adhesiveness evaluation 1> was adsorbed in the same manner as in <Cell adhesiveness evaluation 1>, and cultured in a CO2 incubator at 37° C. Except for the day after the seeding, the medium was replaced every day. In the same method as described above, the cells were subcultured every six days. FIGS. 3A to 3E show forms of the iPS cells cultured on each of the samples.
After being cultured for 1 month under the conditions described above, the cells were immobilized using 4% paraformaldehyde and treated with 1% Triton-X/PBS so as to enhance the membrane permeability. After the cells were subjected to a blocking treatment using an IMAGE IT SIGNAL ENHANCER (trade name, Invitrogen), an anti-human NANOG antibody (AF 1997, R&D Systems, Inc.), an ALEXA FLUOR 555 binding rabbit anti-goat IgG antibody (Invitrogen), and DAPI (Dojindo Molecular Technologies, Inc.) were added thereto for labeling, and the cells were imaged using a fluorescence microscope. FIGS. 4A to 4E show the fluorescence microscopic images.
FIGS. 3A and 4A show the iPS cells cultured on RCP-1; FIGS. 3B and 4B show the iPS cells cultured on RCP-11; FIGS. 3C and 4C show the iPS cells cultured on natural human vitronectin; FIGS. 3D and 4D show the iPS cells cultured on rLaminin-5; and FIGS. 3E and 4E show the iPS cells cultured on rLaminin-511. The scale bar in the images indicates […]. In FIGS. 3A to 3E, the images on the left side are full images of the colony, and the images on the right side are magnified images. In FIGS. 4A to 4E, the images on the left side are images of the cells stained with DAPI, and the images on the right side are images of the cells stained with an anti-NANOG antibody. The scale bar in FIGS. 3A to 4E indicates 200 μm.

Molecule | Aggregation [1] | NANOG expression / maintenance of undifferentiated state (iPS cells)
B1 | A (The formation of particles having a particle size of about 100 nm was observed.) | 
B2 |  | strongly expressed NANOG in the entirety of the colony
B3 | A (The formation of particles having a particle size of about 100 nm was observed.) | 
B4 | A (The formation of particles having a particle size of about 100 nm was observed.) | 
B5 | A (The formation of particles having a particle size of about 100 nm was observed.) | 

Source: patent publication US9938505B2, “Polypeptide composition and culture method for pluripotent stem cell using same” (FUJIFILM Corporation, priority 2013, dated 2018)
